Patent publication US20190322730A1

Experiments:
Assay in all cases: binding screen of Example 5; the reference itself
[1] = molecular target: Factor Bb (UniProt P00751)
[2] = molecular target: C3d (UniProt P01024)
[3] = molecular target: human complement component C3 (human) (UniProt P01024)
[4] = molecular target: C3c (UniProt P01024)
[5] = molecular target: C3b (human) (UniProt P01024)
[6] = molecular target: C3a (human) (UniProt P01024)
[7] = molecular target: iC3b (UniProt P01024)

Measured: binding relative to negative control mIgG2

Sequence of C3b (human) (P01024 23-667 limits assumed, chain 1 of 2): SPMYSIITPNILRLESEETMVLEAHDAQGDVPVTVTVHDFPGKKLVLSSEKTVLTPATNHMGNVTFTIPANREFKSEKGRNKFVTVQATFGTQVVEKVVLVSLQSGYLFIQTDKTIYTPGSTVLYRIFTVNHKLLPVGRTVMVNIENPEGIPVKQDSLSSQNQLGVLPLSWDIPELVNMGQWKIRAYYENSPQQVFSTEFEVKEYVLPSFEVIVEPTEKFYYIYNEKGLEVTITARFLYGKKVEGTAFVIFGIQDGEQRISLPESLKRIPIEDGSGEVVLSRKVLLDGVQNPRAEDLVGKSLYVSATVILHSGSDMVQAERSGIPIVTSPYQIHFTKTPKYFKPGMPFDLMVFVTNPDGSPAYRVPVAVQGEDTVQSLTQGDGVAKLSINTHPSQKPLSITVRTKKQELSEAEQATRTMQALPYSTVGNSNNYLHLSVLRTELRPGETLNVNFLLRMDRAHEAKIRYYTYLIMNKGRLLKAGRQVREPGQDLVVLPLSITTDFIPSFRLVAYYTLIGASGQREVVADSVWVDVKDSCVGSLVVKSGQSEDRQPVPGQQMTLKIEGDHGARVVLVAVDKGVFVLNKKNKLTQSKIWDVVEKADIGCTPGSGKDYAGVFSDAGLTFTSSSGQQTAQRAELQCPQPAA
Sequence of C3b (human) (P01024 749-1663 limits assumed, chain 2 of 2): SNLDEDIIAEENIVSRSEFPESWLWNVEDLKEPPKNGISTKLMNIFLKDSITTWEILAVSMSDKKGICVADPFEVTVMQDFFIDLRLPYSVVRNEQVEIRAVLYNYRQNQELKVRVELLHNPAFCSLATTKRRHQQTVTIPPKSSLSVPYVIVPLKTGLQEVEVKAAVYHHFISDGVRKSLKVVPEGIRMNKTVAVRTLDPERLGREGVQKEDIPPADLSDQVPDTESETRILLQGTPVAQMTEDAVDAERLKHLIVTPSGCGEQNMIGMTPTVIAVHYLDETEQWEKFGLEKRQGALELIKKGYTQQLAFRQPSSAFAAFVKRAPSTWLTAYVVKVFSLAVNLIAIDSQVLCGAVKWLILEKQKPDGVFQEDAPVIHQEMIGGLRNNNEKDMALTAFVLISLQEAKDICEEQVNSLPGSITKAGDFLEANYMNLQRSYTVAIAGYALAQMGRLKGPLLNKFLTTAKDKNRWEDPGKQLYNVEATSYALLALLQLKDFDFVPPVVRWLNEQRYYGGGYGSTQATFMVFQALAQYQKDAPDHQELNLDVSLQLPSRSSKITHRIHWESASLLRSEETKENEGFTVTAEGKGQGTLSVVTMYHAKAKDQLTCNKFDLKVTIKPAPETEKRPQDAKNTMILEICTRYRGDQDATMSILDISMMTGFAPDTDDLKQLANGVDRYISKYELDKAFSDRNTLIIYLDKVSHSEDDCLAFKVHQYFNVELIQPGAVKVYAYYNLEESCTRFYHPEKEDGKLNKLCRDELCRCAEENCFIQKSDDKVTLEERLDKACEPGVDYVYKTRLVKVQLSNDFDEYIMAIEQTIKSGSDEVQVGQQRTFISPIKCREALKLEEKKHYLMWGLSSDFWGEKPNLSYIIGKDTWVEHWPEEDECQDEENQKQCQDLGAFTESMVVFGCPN
Sequence of human complement component C3 (human) (P01024 23-667, chain 1 of 2): as the sequence (P01024 23-667 limits assumed, chain 1 of 2) above
Sequence of human complement component C3 (human) (P01024 672-1663, chain 2 of 2): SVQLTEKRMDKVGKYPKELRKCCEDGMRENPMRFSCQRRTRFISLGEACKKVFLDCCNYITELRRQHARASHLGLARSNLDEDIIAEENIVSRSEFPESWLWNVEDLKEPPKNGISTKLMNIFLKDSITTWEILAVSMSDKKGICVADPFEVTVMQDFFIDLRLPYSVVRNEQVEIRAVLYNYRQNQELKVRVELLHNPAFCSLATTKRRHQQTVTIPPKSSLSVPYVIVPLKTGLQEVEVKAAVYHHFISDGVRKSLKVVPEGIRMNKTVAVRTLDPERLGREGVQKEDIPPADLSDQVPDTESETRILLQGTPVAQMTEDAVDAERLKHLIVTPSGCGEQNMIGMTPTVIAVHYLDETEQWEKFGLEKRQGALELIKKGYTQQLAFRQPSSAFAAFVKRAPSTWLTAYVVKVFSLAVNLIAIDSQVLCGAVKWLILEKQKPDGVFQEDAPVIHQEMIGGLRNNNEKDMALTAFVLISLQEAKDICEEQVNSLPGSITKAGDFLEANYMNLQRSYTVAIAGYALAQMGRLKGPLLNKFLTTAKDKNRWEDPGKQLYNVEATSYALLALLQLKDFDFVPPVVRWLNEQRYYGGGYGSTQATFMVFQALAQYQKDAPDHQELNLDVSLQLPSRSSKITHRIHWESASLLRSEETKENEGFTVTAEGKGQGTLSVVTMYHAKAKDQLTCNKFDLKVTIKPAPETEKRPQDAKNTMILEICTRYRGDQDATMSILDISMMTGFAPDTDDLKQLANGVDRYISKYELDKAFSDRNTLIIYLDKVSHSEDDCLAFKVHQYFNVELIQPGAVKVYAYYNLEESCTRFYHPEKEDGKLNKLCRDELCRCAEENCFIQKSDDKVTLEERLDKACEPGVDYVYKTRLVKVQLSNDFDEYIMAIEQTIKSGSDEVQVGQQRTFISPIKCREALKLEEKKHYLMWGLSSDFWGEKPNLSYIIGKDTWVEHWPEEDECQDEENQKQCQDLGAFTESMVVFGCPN
Sequence of C3d (P01024 1002-1303 limits assumed): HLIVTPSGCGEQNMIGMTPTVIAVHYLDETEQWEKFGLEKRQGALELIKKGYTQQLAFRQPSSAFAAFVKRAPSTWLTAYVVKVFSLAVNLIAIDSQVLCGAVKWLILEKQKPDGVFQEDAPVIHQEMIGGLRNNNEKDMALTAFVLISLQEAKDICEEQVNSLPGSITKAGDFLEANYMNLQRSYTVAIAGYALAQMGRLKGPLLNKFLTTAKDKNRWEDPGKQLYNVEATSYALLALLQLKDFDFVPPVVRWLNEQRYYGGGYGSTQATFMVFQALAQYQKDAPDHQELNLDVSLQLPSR
Sequence of C3a (human) (P01024 672-748 limits assumed): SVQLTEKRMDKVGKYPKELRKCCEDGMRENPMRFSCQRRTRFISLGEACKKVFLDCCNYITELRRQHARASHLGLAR
Sequence of Factor Bb (P00751 260-764 limits assumed): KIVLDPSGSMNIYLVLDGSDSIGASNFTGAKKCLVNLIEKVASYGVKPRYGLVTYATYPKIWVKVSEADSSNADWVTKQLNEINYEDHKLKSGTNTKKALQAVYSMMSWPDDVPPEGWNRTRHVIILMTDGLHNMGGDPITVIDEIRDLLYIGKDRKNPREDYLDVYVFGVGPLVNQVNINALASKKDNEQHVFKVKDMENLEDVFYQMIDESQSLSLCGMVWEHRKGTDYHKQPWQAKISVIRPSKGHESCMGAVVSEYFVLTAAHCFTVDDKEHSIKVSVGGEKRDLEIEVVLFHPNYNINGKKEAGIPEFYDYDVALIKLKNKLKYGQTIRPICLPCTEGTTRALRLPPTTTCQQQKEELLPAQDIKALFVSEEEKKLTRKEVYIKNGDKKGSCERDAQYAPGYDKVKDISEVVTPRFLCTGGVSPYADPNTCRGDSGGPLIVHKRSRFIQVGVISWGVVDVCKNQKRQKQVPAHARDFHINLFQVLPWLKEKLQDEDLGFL

negative control mIgG2 antibody
0: [1] | [2] | [3] | [4] | [5] | [6] | [7]
